target: hSSB1 (Homo sapiens, UniProt Q9BQ15 Q9BQ15:1-211); experiment: SPR
Sequence (Q9BQ15 whole entry, one chain of several): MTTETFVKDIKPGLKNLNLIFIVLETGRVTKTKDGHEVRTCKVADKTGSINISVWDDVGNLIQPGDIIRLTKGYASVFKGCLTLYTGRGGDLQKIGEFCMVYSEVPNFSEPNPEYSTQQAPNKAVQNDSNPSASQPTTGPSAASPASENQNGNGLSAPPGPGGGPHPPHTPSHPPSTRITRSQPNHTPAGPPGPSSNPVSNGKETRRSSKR

Binder | binding signal [normalized Rmax]
GCAGCAGUACGACGG (ssRNA, 2'-OMe all, full PS) [LSA_ATG 5' truncation 15 nt] | 0.46
UGUCAUAUUCCUGGAUCCUU (ssRNA, 2'-OMe all, full PS) [DKLS684387 (SEQ 29)] | 1.38
UUGACAGAUUAAGUCCAUUC (ssRNA, 2'-OMe all, full PS) [DKLS675388 (SEQ 51)] | 0.89
GGCGAAUGAGACUUCUCUUA (ssRNA, 2'-OMe all, full PS) [DKLS693540 (SEQ 27)] | 1.64
GCCCGUCUGGCGCAUAGCUA (ssRNA, 2'-OMe all, full PS) [DKLS646683 (SEQ 54)] | 0.98
GUGCAUGGAAUCACGGAG (ssRNA, 2'-OMe all, full PS) [Open_A 3' truncation 18 nt] | 1.03
GCUCCAGCAUCUGCUGCUUC (ssRNA, 2'-OMe all, full PS) [DKLS491049 (SEQ 32)] | 0.65
UCUCCCAGCGUGCGCCAU (ssRNA, 2'-OMe all, full PS) [DKLS696616 (SEQ 9)] | 0.79
AGGCAGCAGUACGA (ssRNA, 2'-OMe all, full PS) [LSA_ATG both-end truncation 14 nt] | 1.05
CAGCAGCAGAGUAUUUAUCAU (ssRNA, 2'-OMe all, full PS) [DKLS481254 (SEQ 31)] | 1.1
AGGCAGCAGUACGACGG (ssRNA, 2'-OMe all, full PS) [LSA_ATG 5' truncation 17 nt] | 0.68
CUGCCUAAGUAAAAAGUGUAAAC (ssRNA, 2'-OMe all, full PS) [DKLS687118 (SEQ 15)] | 1.21
UGCUAUCUUAUCACCUUUAG (ssRNA, 2'-OMe all, full PS) [DKLS331584 (SEQ 26)] | 0.48
UCUCCCAGCAUGUGCCAU (ssRNA, 2'-OMe all, full PS) [DKLS832163 (SEQ 11)] | 0.31
CAGAGGCAGCAGUACGACG (ssRNA, 2'-OMe all, full PS) [LSA_ATG 3' truncation 19 nt] | 0.78
GCGGGUCCUCUACGCACUGA (ssRNA, 2'-OMe all, full PS) [DKLS649547 (SEQ 53)] | 1.55
UCUUAUGUUUCCGAACCGUU (ssRNA, 2'-OMe all, full PS) [DKLS370480 (SEQ 25)] | 0.69
GGGACGCGGCGCUCGGUCAU (ssRNA, 2'-OMe all, full PS) [DKLS951212 (SEQ 30)] | 2.13
UAAGCUGUUCUAUGUGUU (ssRNA, 2'-OMe all, full PS) [DKLS463500 (SEQ 23)] | 0.74
ACAUCGUUACCAGACAGUGUUA (ssRNA, 2'-OMe all, full PS) [DKLS687764 (SEQ 34)] | 1.47
CCAUCUGUAAUUACAAAAUUAAA (ssRNA, 2'-OMe all, full PS) [DKLS765774 (SEQ 16)] | 1.93
UCUCCCAGCAUGUGCCAU (ssRNA, full PS) [DKLS658030 (SEQ 8)] | 0.51
CAGAGGCAGCAGUACGACGG (ssRNA, 2'-OMe all, ZEN at both ends) [LSA_ATG ZEN (DKLS649218)] | 0.15
CGGACUUGCCU (ssRNA, 2'-OMe all, full PS) [In3E3 5' truncation 11 nt] | 0.09
GUGCAUGGAAUCACGGAGU (ssRNA, 2'-OMe all, full PS) [Open_A 3' truncation 19 nt] | 1.24

Binder | binding signal [normalized Rmax]
UCAAGGAAGAUGGCAUUUCU (ssRNA, 2'-OMe all, full PS) [DKLS687764 (SEQ 14)] | 1.12
GUGCAUGGAAUCACGGA (ssRNA, 2'-OMe all, full PS) [Open_A 3' truncation 17 nt] | 2.06
AGAGGCAGCAGUACGACG (ssRNA, 2'-OMe all, full PS) [LSA_ATG both-end truncation 18 nt] | 0.96
GAGUAAACAUUCUGUGUGGAGUC (ssRNA, 2'-OMe all, full PS) [DKLS965031 (SEQ 17)] | 1.35
GGUCGUAAUACUUUCACUUA (ssRNA, 2'-OMe all, full PS) [DKLS629224 (SEQ 12)] | 0.97
CAGAGGCAGCAGUACGAC (ssRNA, 2'-OMe all, full PS) [LSA_ATG 3' truncation 18 nt] | 0.64
GAGGCAGCAGUACGAC (ssRNA, 2'-OMe all, full PS) [LSA_ATG both-end truncation 16 nt] | 0.67
AGAGGCAGCAGUACGACGG (ssRNA, 2'-OMe all, full PS) [LSA_ATG 5' truncation 19 nt] | 1.02
GGCAGCAGUACGACGG (ssRNA, 2'-OMe all, full PS) [LSA_ATG 5' truncation 16 nt] | 0.64
CAGCAGCAGAGUCUUCAUCAU (ssRNA, 2'-OMe all, full PS) [DKLS354527 (SEQ 21)] | 0.91
GAGGCAGCAGUACGACGG (ssRNA, 2'-OMe all, full PS) [LSA_ATG 5' truncation 18 nt] | 0.77
UCCUGGAUCCUUCACCAAUG (ssRNA, 2'-OMe all, full PS) [DKLS687192 (SEQ 28)] | 1.08
CAGAGGCAGCAGUACG (ssRNA, 2'-OMe all, full PS) [LSA_ATG 3' truncation 16 nt] | 0.46
ACAUGGUUCCCCGACAGUGUUA (ssRNA, 2'-OMe all, full PS) [DKLS687118 (SEQ 35)] | 1.7
UACCGCGUGCGACCCUCU (ssRNA, full PS) [DKLS371273 (SEQ 7)] | 1.05
GGGCCUCCCGCACUUGAGAU (ssRNA, 2'-OMe all, full PS) [DKLS679059 (SEQ 55)] | 0.85
GGCACGUCCGCCAGUCAUGU (ssRNA, 2'-OMe all, full PS) [DKLS656105 (SEQ 56)] | 0.73
UGUGCUAUUCUGUGAAUU (ssRNA, 2'-OMe all, full PS) [DKLS484655 (SEQ 22)] | 0.43
GUGCAUGGAAUCACGG (ssRNA, 2'-OMe all, full PS) [Open_A 3' truncation 16 nt] | 0.66
GCCGGACUUGCCU (ssRNA, 2'-OMe all, full PS) [In3E3 5' truncation 13 nt] | 0.22
CCUCUCUGCCGCUCUUGCCU (ssRNA, 2'-OMe all, full PS) [DKLS420640 (SEQ 57)] | 0.48
GCCACCCGUCGGUUGCUAGA (ssRNA, 2'-OMe all, full PS) [DKLS659460 (SEQ 52)] | 1.65
CAGAGGCAGCAGUACGA (ssRNA, 2'-OMe all, full PS) [LSA_ATG 3' truncation 17 nt] | 1.19
GUCUCCGUCGUCAUGCUGCC (ssRNA, 2'-OMe all, full PS) [ASO_ATG (DKLS421748)] | 0.64

target: THOC4 (ALYREF) (UniProt Q86V81 Q86V81:2-257); experiment: SPR

Binder | binding signal [normalized Rmax]
GCAGCAGUACGACGG (ssRNA, 2'-OMe all, full PS) [LSA_ATG 5' truncation 15 nt] | 0.31
UGUCAUAUUCCUGGAUCCUU (ssRNA, 2'-OMe all, full PS) [DKLS684387 (SEQ 29)] | 0.87
CACGUACCUUAGUGCCUCAC (ssRNA, 2'-OMe all, ZEN at both ends) [Open_L ZEN (DKLS665920)] | -0.15
UUGACAGAUUAAGUCCAUUC (ssRNA, 2'-OMe all, full PS) [DKLS675388 (SEQ 51)] | 0.15
GGCGAAUGAGACUUCUCUUA (ssRNA, 2'-OMe all, full PS) [DKLS693540 (SEQ 27)] | 0.89
GCCCGUCUGGCGCAUAGCUA (ssRNA, 2'-OMe all, full PS) [DKLS646683 (SEQ 54)] | 0.85
GUGCAUGGAAUCACGGAG (ssRNA, 2'-OMe all, full PS) [Open_A 3' truncation 18 nt] | 0.39
GCUCCAGCAUCUGCUGCUUC (ssRNA, 2'-OMe all, full PS) [DKLS491049 (SEQ 32)] | 0.26
UCUCCCAGCGUGCGCCAU (ssRNA, 2'-OMe all, full PS) [DKLS696616 (SEQ 9)] | 1.12
AGGCAGCAGUACGA (ssRNA, 2'-OMe all, full PS) [LSA_ATG both-end truncation 14 nt] | 1.02
CAGCAGCAGAGUAUUUAUCAU (ssRNA, 2'-OMe all, full PS) [DKLS481254 (SEQ 31)] | 0.46
AGGCAGCAGUACGACGG (ssRNA, 2'-OMe all, full PS) [LSA_ATG 5' truncation 17 nt] | 0.8
CUGCCUAAGUAAAAAGUGUAAAC (ssRNA, 2'-OMe all, full PS) [DKLS687118 (SEQ 15)] | 0.51
UGCUAUCUUAUCACCUUUAG (ssRNA, 2'-OMe all, full PS) [DKLS331584 (SEQ 26)] | 0.15
UCUCCCAGCAUGUGCCAU (ssRNA, 2'-OMe all, full PS) [DKLS832163 (SEQ 11)] | 0.33
CAGAGGCAGCAGUACGACG (ssRNA, 2'-OMe all, full PS) [LSA_ATG 3' truncation 19 nt] | 0.92
GCGGGUCCUCUACGCACUGA (ssRNA, 2'-OMe all, full PS) [DKLS649547 (SEQ 53)] | 0.85
UCUUAUGUUUCCGAACCGUU (ssRNA, 2'-OMe all, full PS) [DKLS370480 (SEQ 25)] | 0.34
GGGACGCGGCGCUCGGUCAU (ssRNA, 2'-OMe all, full PS) [DKLS951212 (SEQ 30)] | 1.35
UAAGCUGUUCUAUGUGUU (ssRNA, 2'-OMe all, full PS) [DKLS463500 (SEQ 23)] | 0.32
ACAUCGUUACCAGACAGUGUUA (ssRNA, 2'-OMe all, full PS) [DKLS687764 (SEQ 34)] | 0.75
CCAUCUGUAAUUACAAAAUUAAA (ssRNA, 2'-OMe all, full PS) [DKLS765774 (SEQ 16)] | 0.97
UCUCCCAGCAUGUGCCAU (ssRNA, full PS) [DKLS658030 (SEQ 8)] | 0.52
CGGACUUGCCU (ssRNA, 2'-OMe all, full PS) [In3E3 5' truncation 11 nt] | 0.01
GUGCAUGGAAUCACGGAGU (ssRNA, 2'-OMe all, full PS) [Open_A 3' truncation 19 nt] | 0.47

Binder | binding signal [normalized Rmax]
UCAAGGAAGAUGGCAUUUCU (ssRNA, 2'-OMe all, full PS) [DKLS687764 (SEQ 14)] | 0.55
GUGCAUGGAAUCACGGA (ssRNA, 2'-OMe all, full PS) [Open_A 3' truncation 17 nt] | 1
AGAGGCAGCAGUACGACG (ssRNA, 2'-OMe all, full PS) [LSA_ATG both-end truncation 18 nt] | 0.81
GAGUAAACAUUCUGUGUGGAGUC (ssRNA, 2'-OMe all, full PS) [DKLS965031 (SEQ 17)] | 0.64
GGUCGUAAUACUUUCACUUA (ssRNA, 2'-OMe all, full PS) [DKLS629224 (SEQ 12)] | 0.47
CAGAGGCAGCAGUACGAC (ssRNA, 2'-OMe all, full PS) [LSA_ATG 3' truncation 18 nt] | 0.71
GAGGCAGCAGUACGAC (ssRNA, 2'-OMe all, full PS) [LSA_ATG both-end truncation 16 nt] | 0.44
AGAGGCAGCAGUACGACGG (ssRNA, 2'-OMe all, full PS) [LSA_ATG 5' truncation 19 nt] | 1.1
GGCAGCAGUACGACGG (ssRNA, 2'-OMe all, full PS) [LSA_ATG 5' truncation 16 nt] | 0.49
CAGCAGCAGAGUCUUCAUCAU (ssRNA, 2'-OMe all, full PS) [DKLS354527 (SEQ 21)] | 0.37
GAGGCAGCAGUACGACGG (ssRNA, 2'-OMe all, full PS) [LSA_ATG 5' truncation 18 nt] | 1.06
UCCUGGAUCCUUCACCAAUG (ssRNA, 2'-OMe all, full PS) [DKLS687192 (SEQ 28)] | 0.76
CAGAGGCAGCAGUACG (ssRNA, 2'-OMe all, full PS) [LSA_ATG 3' truncation 16 nt] | 0.53
ACAUGGUUCCCCGACAGUGUUA (ssRNA, 2'-OMe all, full PS) [DKLS687118 (SEQ 35)] | 0.72
UACCGCGUGCGACCCUCU (ssRNA, full PS) [DKLS371273 (SEQ 7)] | 0.81
GGGCCUCCCGCACUUGAGAU (ssRNA, 2'-OMe all, full PS) [DKLS679059 (SEQ 55)] | 0.37
GGCACGUCCGCCAGUCAUGU (ssRNA, 2'-OMe all, full PS) [DKLS656105 (SEQ 56)] | 0.23
UGUGCUAUUCUGUGAAUU (ssRNA, 2'-OMe all, full PS) [DKLS484655 (SEQ 22)] | 0.22
GUGCAUGGAAUCACGG (ssRNA, 2'-OMe all, full PS) [Open_A 3' truncation 16 nt] | 0.29
GCCGGACUUGCCU (ssRNA, 2'-OMe all, full PS) [In3E3 5' truncation 13 nt] | 0.01
CCUCUCUGCCGCUCUUGCCU (ssRNA, 2'-OMe all, full PS) [DKLS420640 (SEQ 57)] | 0.03
GCCACCCGUCGGUUGCUAGA (ssRNA, 2'-OMe all, full PS) [DKLS659460 (SEQ 52)] | 0.89
CAGAGGCAGCAGUACGA (ssRNA, 2'-OMe all, full PS) [LSA_ATG 3' truncation 17 nt] | 1.46
GUCUCCGUCGUCAUGCUGCC (ssRNA, 2'-OMe all, full PS) [ASO_ATG (DKLS421748)] | 0.33

Source: patent publication US20200230168, “NUCLEIC ACID OLIGOMERS AND USES THEREFOR” (Queensland University of Technology, published 2020)
